In publication doi:10.1101/2020.02.11.944678:

Target: Fibronectin (FN) from human plasma (human) (UniProt P02751)
Sequence of UniProt P02751 (P02751 32-2477): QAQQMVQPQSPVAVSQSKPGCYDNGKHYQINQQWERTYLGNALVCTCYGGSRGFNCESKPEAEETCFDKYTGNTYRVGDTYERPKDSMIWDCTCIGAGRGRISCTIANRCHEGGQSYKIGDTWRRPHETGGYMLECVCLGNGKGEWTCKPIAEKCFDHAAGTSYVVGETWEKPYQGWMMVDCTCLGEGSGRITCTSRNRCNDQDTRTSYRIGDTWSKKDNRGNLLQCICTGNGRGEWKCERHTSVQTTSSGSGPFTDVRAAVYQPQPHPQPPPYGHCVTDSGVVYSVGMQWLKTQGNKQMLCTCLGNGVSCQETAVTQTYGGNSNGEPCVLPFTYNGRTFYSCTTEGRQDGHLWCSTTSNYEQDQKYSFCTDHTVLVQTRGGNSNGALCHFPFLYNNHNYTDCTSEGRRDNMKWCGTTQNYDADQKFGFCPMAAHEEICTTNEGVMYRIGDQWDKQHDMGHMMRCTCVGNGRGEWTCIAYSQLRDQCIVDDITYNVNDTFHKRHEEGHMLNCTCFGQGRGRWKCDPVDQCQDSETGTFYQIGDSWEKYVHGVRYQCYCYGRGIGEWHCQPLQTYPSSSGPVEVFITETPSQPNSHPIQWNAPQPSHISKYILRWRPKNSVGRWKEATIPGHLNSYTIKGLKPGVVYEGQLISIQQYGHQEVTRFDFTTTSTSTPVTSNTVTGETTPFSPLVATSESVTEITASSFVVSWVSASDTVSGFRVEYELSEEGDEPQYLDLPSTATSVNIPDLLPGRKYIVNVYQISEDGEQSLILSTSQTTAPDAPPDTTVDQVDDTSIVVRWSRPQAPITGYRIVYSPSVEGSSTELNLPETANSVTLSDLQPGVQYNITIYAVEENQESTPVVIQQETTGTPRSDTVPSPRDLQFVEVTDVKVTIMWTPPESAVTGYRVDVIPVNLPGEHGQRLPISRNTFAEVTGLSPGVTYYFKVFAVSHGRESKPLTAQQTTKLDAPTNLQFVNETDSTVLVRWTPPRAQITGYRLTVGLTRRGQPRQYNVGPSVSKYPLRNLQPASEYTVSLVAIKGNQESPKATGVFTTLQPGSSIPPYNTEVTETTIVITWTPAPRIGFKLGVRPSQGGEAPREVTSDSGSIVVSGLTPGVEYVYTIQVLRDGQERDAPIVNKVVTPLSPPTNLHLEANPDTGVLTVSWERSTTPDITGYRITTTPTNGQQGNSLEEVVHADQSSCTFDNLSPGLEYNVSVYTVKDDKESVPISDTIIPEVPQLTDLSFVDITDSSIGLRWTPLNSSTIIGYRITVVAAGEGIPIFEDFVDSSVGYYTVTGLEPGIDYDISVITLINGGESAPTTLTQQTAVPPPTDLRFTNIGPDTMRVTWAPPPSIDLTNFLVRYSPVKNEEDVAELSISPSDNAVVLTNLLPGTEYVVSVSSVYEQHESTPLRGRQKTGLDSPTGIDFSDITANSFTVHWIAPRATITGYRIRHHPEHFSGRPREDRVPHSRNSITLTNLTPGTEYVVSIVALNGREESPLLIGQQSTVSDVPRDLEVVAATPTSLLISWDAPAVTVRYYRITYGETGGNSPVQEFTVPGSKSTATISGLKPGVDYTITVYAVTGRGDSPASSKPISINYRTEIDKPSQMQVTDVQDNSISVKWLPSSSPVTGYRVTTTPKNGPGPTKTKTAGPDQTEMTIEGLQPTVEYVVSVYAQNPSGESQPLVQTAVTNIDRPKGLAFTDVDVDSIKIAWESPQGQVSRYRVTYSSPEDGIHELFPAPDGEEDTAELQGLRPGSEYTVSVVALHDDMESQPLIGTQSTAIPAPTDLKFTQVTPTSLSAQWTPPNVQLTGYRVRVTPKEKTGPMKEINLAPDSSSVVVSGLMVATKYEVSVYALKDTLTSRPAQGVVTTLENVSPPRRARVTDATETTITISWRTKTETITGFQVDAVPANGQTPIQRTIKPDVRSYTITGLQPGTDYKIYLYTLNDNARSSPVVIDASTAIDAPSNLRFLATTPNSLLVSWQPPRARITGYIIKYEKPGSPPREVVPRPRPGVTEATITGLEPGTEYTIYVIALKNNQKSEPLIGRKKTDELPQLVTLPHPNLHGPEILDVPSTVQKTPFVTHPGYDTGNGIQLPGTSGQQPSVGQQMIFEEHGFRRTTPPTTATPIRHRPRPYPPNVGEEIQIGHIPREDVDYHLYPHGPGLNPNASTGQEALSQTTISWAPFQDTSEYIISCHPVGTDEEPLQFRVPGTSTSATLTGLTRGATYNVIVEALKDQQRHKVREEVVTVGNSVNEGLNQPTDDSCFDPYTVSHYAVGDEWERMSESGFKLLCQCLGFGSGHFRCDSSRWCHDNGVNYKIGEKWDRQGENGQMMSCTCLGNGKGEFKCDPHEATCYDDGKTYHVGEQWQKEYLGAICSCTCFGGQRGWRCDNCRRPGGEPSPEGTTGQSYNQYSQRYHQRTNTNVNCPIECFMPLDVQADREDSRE

fold more bead attachment on FN-coated GO than on FN-coated RGO: 5 fold
Substance: Recombinant human αVβ3 integrin (from UniProt P06756;P05106) (receptor)
